± gives the standard deviation of the averaged measurements.
B1: library; a variant is named by its letters at N, in order (parent)
chain: GCUGUCACCGGUGUAUUACCCUAGUGGUCGACCGGUCUGAUGAGUCUNNNNNNAGACGAAACAGC

Columns and labels:
hypoxanthine [1] = variants of: B1; test: normalized RNA/DNA level with ligand (relative to sTRSVctl = 100) (log10 (% of sTRSVctl)); ligand: hypoxanthine (xanthine aptamer); higher = less ribozyme self-cleavage, higher mRNA level; settings: ligand concentration (+) RNA-Seq: 5 mM, HEK293T, reporter: mCherry (pCS4076), ligand present: yes
Outline: (§1)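 Ribozyme switch library plasmids linked to reporters were introduced into HEK293T cells at 4 µg per 6-well well, with ligand, if any, added 1 h before. Total RNA was extracted with EDTA 72 h later, reverse-transcribed, amplified, barcoded and sequenced. RNA level was computed from RNA over DNA reads relative to a spiked-in non-cleaving sequence or the top sequences, then scaled and log-transformed. The top set was 25 sequences, values were ×100 and log10, and the cutoff was ≥100 DNA reads.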

hypoxanthine [2] = variants of: B1; test: normalized RNA/DNA level without ligand (relative to sTRSVctl = 100) (log10 (% of sTRSVctl)); ligand: hypoxanthine (xanthine aptamer); higher = less ribozyme self-cleavage, higher mRNA level; settings: HEK293T, reporter: mCherry (pCS4076), ligand present: no
Outline: as §1

Variant	normalized RNA/DNA level with ligand (log10) (hypoxanthine [1])	normalized RNA/DNA level without ligand (log10) (hypoxanthine [2])
GCUGUCACCGGUGUAUUACCCUAGUGGUCGACCGGUCUGAUGAGUCUUGCACCAGACGAAACAGC [UGCACC]	1.92 ± 0.057	1.93 ± 0.024
GCUGUCACCGGUGUAUUACCCUAGUGGUCGACCGGUCUGAUGAGUCUCGCACGAGACGAAACAGC [CGCACG]	1.95 ± 0.089	1.87 ± 0.044
GCUGUCACCGGUGUAUUACCCUAGUGGUCGACCGGUCUGAUGAGUCUGGCACGAGACGAAACAGC [GGCACG]	1.92 ± 0.022	1.66 ± 0.029
GCUGUCACCGGUGUAUUACCCUAGUGGUCGACCGGUCUGAUGAGUCUUGCACGAGACGAAACAGC [UGCACG]	1.923 ± 0.014	1.76 ± 0.038
GCUGUCACCGGUGUAUUACCCUAGUGGUCGACCGGUCUGAUGAGUCUCGCACUAGACGAAACAGC [CGCACU]	2 ± 0.11	1.89 ± 0.066
GCUGUCACCGGUGUAUUACCCUAGUGGUCGACCGGUCUGAUGAGUCUGGCACUAGACGAAACAGC [GGCACU]	2.011 ± 0.0022	1.99 ± 0.025
GCUGUCACCGGUGUAUUACCCUAGUGGUCGACCGGUCUGAUGAGUCUUGCACUAGACGAAACAGC [UGCACU]	1.94 ± 0.088	1.9 ± 0.0073
GCUGUCACCGGUGUAUUACCCUAGUGGUCGACCGGUCUGAUGAGUCUAGCACUAGACGAAACAGC [AGCACU]	1.96 ± 0.039	1.8853 ± 0.00075
GCUGUCACCGGUGUAUUACCCUAGUGGUCGACCGGUCUGAUGAGUCUCGCAGAAGACGAAACAGC [CGCAGA]	1.9 ± 0.029	1.81 ± 0.082
GCUGUCACCGGUGUAUUACCCUAGUGGUCGACCGGUCUGAUGAGUCUCGCAGCAGACGAAACAGC [CGCAGC]	1.96 ± 0.041	1.87 ± 0.025
GCUGUCACCGGUGUAUUACCCUAGUGGUCGACCGGUCUGAUGAGUCUUGCAGCAGACGAAACAGC [UGCAGC]	1.98 ± 0.074	1.83 ± 0.055
GCUGUCACCGGUGUAUUACCCUAGUGGUCGACCGGUCUGAUGAGUCUCGCAGGAGACGAAACAGC [CGCAGG]	1.82 ± 0.096	1.348 ± 0.011
GCUGUCACCGGUGUAUUACCCUAGUGGUCGACCGGUCUGAUGAGUCUGGCAGGAGACGAAACAGC [GGCAGG]	1.874 ± 0.0049	1.496 ± 0.0048
GCUGUCACCGGUGUAUUACCCUAGUGGUCGACCGGUCUGAUGAGUCUCGCAGUAGACGAAACAGC [CGCAGU]	1.938 ± 0.0028	1.86 ± 0.026
GCUGUCACCGGUGUAUUACCCUAGUGGUCGACCGGUCUGAUGAGUCUAGCAGUAGACGAAACAGC [AGCAGU]	1.83 ± 0.03	1.44 ± 0.036
GCUGUCACCGGUGUAUUACCCUAGUGGUCGACCGGUCUGAUGAGUCUCGCAUAAGACGAAACAGC [CGCAUA]	1.9 ± 0.052	1.69 ± 0.033
GCUGUCACCGGUGUAUUACCCUAGUGGUCGACCGGUCUGAUGAGUCUGGCAUAAGACGAAACAGC [GGCAUA]	1.941 ± 0.0052	1.86 ± 0.032
GCUGUCACCGGUGUAUUACCCUAGUGGUCGACCGGUCUGAUGAGUCUUGCAUAAGACGAAACAGC [UGCAUA]	1.964 ± 0.0062	1.83 ± 0.022
GCUGUCACCGGUGUAUUACCCUAGUGGUCGACCGGUCUGAUGAGUCUGGCAUCAGACGAAACAGC [GGCAUC]	1.97 ± 0.074	1.91 ± 0.057
GCUGUCACCGGUGUAUUACCCUAGUGGUCGACCGGUCUGAUGAGUCUUGCAUCAGACGAAACAGC [UGCAUC]	2.02 ± 0.031	2.04 ± 0.052
GCUGUCACCGGUGUAUUACCCUAGUGGUCGACCGGUCUGAUGAGUCUAGCAUCAGACGAAACAGC [AGCAUC]	2.07 ± 0.038	1.96 ± 0.025

Variant	normalized RNA/DNA level with ligand (log10) (hypoxanthine [1])	normalized RNA/DNA level without ligand (log10) (hypoxanthine [2])
GCUGUCACCGGUGUAUUACCCUAGUGGUCGACCGGUCUGAUGAGUCUCGCAUGAGACGAAACAGC [CGCAUG]	1.93 ± 0.059	1.81 ± 0.057
GCUGUCACCGGUGUAUUACCCUAGUGGUCGACCGGUCUGAUGAGUCUUGCAUGAGACGAAACAGC [UGCAUG]	1.9 ± 0.028	1.75 ± 0.024
GCUGUCACCGGUGUAUUACCCUAGUGGUCGACCGGUCUGAUGAGUCUCGCAUUAGACGAAACAGC [CGCAUU]	1.942 ± 0.0093	1.82 ± 0.036
GCUGUCACCGGUGUAUUACCCUAGUGGUCGACCGGUCUGAUGAGUCUGGCAUUAGACGAAACAGC [GGCAUU]	1.958 ± 0.0075	1.925 ± 0.0063
GCUGUCACCGGUGUAUUACCCUAGUGGUCGACCGGUCUGAUGAGUCUUGCAUUAGACGAAACAGC [UGCAUU]	1.981 ± 0.01	1.88 ± 0.018
GCUGUCACCGGUGUAUUACCCUAGUGGUCGACCGGUCUGAUGAGUCUCGCCAAAGACGAAACAGC [CGCCAA]	1.94 ± 0.02	1.82 ± 0.064
GCUGUCACCGGUGUAUUACCCUAGUGGUCGACCGGUCUGAUGAGUCUGGCCAAAGACGAAACAGC [GGCCAA]	1.934 ± 0.015	1.87 ± 0.022
GCUGUCACCGGUGUAUUACCCUAGUGGUCGACCGGUCUGAUGAGUCUUGCCAAAGACGAAACAGC [UGCCAA]	1.906 ± 0.018	1.84 ± 0.021
GCUGUCACCGGUGUAUUACCCUAGUGGUCGACCGGUCUGAUGAGUCUCGCCACAGACGAAACAGC [CGCCAC]	1.92 ± 0.043	1.84 ± 0.05
GCUGUCACCGGUGUAUUACCCUAGUGGUCGACCGGUCUGAUGAGUCUGGCCACAGACGAAACAGC [GGCCAC]	1.997 ± 0.011	1.861 ± 0.0085
GCUGUCACCGGUGUAUUACCCUAGUGGUCGACCGGUCUGAUGAGUCUAGCCACAGACGAAACAGC [AGCCAC]	1.931 ± 0.014	1.8318 ± 6.2e-05
GCUGUCACCGGUGUAUUACCCUAGUGGUCGACCGGUCUGAUGAGUCUGGCCAGAGACGAAACAGC [GGCCAG]	1.89 ± 0.026	1.67 ± 0.033
GCUGUCACCGGUGUAUUACCCUAGUGGUCGACCGGUCUGAUGAGUCUCGCCAUAGACGAAACAGC [CGCCAU]	1.88 ± 0.046	1.87 ± 0.021
GCUGUCACCGGUGUAUUACCCUAGUGGUCGACCGGUCUGAUGAGUCUGGCCAUAGACGAAACAGC [GGCCAU]	1.957 ± 0.003	1.919 ± 0.018
GCUGUCACCGGUGUAUUACCCUAGUGGUCGACCGGUCUGAUGAGUCUUGCCAUAGACGAAACAGC [UGCCAU]	1.909 ± 0.0083	1.817 ± 0.015
GCUGUCACCGGUGUAUUACCCUAGUGGUCGACCGGUCUGAUGAGUCUCGCCCAAGACGAAACAGC [CGCCCA]	1.96 ± 0.06	1.92 ± 0.041
GCUGUCACCGGUGUAUUACCCUAGUGGUCGACCGGUCUGAUGAGUCUGGCCCAAGACGAAACAGC [GGCCCA]	1.95 ± 0.026	1.97 ± 0.024
GCUGUCACCGGUGUAUUACCCUAGUGGUCGACCGGUCUGAUGAGUCUCGCCCCAGACGAAACAGC [CGCCCC]	1.971 ± 0.013	1.922 ± 0.0052
GCUGUCACCGGUGUAUUACCCUAGUGGUCGACCGGUCUGAUGAGUCUGGCCCCAGACGAAACAGC [GGCCCC]	1.95 ± 0.12	1.97 ± 0.021
GCUGUCACCGGUGUAUUACCCUAGUGGUCGACCGGUCUGAUGAGUCUUGCCCCAGACGAAACAGC [UGCCCC]	2.011 ± 0.0086	1.9 ± 0.024
GCUGUCACCGGUGUAUUACCCUAGUGGUCGACCGGUCUGAUGAGUCUAGCCCCAGACGAAACAGC [AGCCCC]	1.963 ± 0.015	1.91 ± 0.089
